Several values for one entry are separate records, joined by “and”; a condition that tells them apart may be missing. Identical values can stand only once.
Test system: subjects with chronic systolic heart failure
Assay: Phase III clinical trial of recombinant human neuregulin for injection on cardiac function (LVESVI/LVEDVI), with enriched-subgroup analyses
Assay type: in vivo
Settings: for average improvement in LVEDVI from baseline, enriched population compared with overall (general) population / average improvement in LVESVI from baseline, enriched population compared with overall (general) population: Day 30 after the administration
Description: Example 1: A Multi-Center, Randomized, Double-Blind, Placebo-Controlled and Standard Treatment-Based Phase III Clinical Trial to Evaluate the Effect of Recombinant Human Neuregulin for Injection on Cardiac Function of Subjects with Chronic Systolic Heart Failure
In this example, a multi-center, randomized, double-blind, placebo-controlled study was conducted based on standard treatment to evaluate the effects of recombinant human neuregulin for injection on the cardiac function of male patients with NT-proBNP ≤1700 pg/ml and female patients with NT-proBNP ≤4000 pg/ml, and to confirm its efficacy and safety.
A multicenter, randomized, double-blind, placebo-controlled study was conducted based on standard treatment.
Experimental group: recombinant human neuregulin for injection+standard basic treatment drugs (β receptor blocker, ACEI/ARB/ARNI, aldosterone receptor antagonist, etc.).
• 2.1 Age is 18-75 years old, regardless of gender; • 2.2 heart failure has been definitely diagnosed for 3 months or more, and the condition is stable at present, with NYHA II-III grade and left ventricular ejection fraction (LVEF)≤40%; • 2.3 male Nt-proBNP ≤1700 pg/ml, female Nt-proBNP ≤4000 pg/ml; • 2.4 After receiving standard basic treatment drugs for heart failure for 3 months, the target dose or maximum tolerated dose has been reached for more than 1 month, or the dose has not been changed within 1 month; • 2.5 Understand and sign the informed consent form.
Specification: Neucardin, 61 amino acids constitute EGF-like functional domain of Neuegulin-1β2 isomer, with molecular weight of 7054 Dal (1 μg=0.14 nmol); 250 μg/piece. • Dosage Form: Powder Injection • Administration Route: Intravenous Drip • Appearance: freeze-dried block or powder.
5. Data Collection: Evaluating the Effectiveness and Safety During the Screening Period, 30 Days and 90 Days after Administration.
This example was carried out in many clinical research centers in China at the same time. 154 cases were actually enrolled, 78 cases in the Neuregulin experimental group and 76 cases in the placebo group. A total of 147 cases (73 cases in the experimental group and 74 cases in the placebo group) finally achieved the main end points.
Through statistical analysis of the experimental results from Example 1, the inventors investigated, in this Example, the response rate of Neuregulin in improving LVESVI (by more than 13 mL/m^2) in an enriched population. The enriched population refers to patients with a baseline LVESVI ≥135 mL/m^2, accounting for approximately 41% of the total studied population.
Through statistical analysis of the results from Example 1, the inventors investigated, in this Example, the response rate of Neuregulin in improving both LVESVI and LVEDVI (both exceeding 20 mL/m^2) in individual patients of the enriched population.

[1] = 30 days after administration, P<0.05 vs placebo
[2] = baseline LVESVI ≥135 mL/m^2, listed as neuregulin
[3] = enriched population, baseline LVESVI ≥135 mL/m^2
[4] = individual subject, Day 30 vs baseline, FAS

B1: Neuregulin: 61 amino acids constitute EGF-like functional domain of Neuegulin-1β2 isomer, molecular weight 7054 Dal; SEQ ID NO: 1 (protein)
chain: SHLVKCAEKEKTFCVNGGECFMVKDLSNPSRYLCKCPNEFTGDRCQNYVMASFYKAEELYQ
For B1, the “patients with LVESVI reduction” value (30-day data, compared with baseline) was 63%, the ΔLVESVI (30 D) was −5.62 ± 18.99 ml/m^2 and the ΔLVESVI (90 D, P=0.0128) was −5.23 ± 17.12 ml/m^2. The “improvement rate: LVESVI decreased by ≥5 ml/m^2 compared with the baseline” value (30 days after administration) was 45.2%, the “improvement rate: LVESVI decreased by ≥10 ml/m^2 compared with the baseline” value (30 days after administration) was 34.2% and the “improvement rate: LVESVI decreased by ≥15 ml/m^2 compared with the baseline” value (30 days after administration) was 23.3%. For the same molecule, the “improvement rate: LVESVI decreased by ≥30 ml/m^2 compared with the baseline” value (30 days after administration) was 8.2%, the “improvement rate: LVESVI decreased by ≥35 ml/m^2 compared with the baseline” value (30 days after administration) was 5.5% and the “improvement rate: LVESVI decreased by ≥40 ml/m^2 compared with the baseline” value (30 days after administration) was 2.7%. The “improvement rate: LVESVI decreased by ≥20 ml/m^2 compared with the baseline” value [1] was 17.8%, the “improvement rate: LVESVI decreased by ≥25 ml/m^2 compared with the baseline” value [1] was 15.1% and the “Increase in LVEDVI at Day 30 compared with the baseline was more than or equal to 5 ml/m^2, n/N(%)” value (Day 30, FAS) was 19/73(26.0) %. For the same molecule, the “Increase in LVEDVI at Day 30 compared with the baseline was more than or equal to 10 ml/m^2, n/N(%)” value (Day 30, FAS) was 14/73(19.2) %, the “Increase in LVEDVI at Day 30 compared with the baseline was more than or equal to 15 ml/m^2, n/N(%)” value (Day 30, FAS) was 9/73(12.3) % and the “Increase in LVEDVI at Day 30 compared with the baseline was more than or equal to 20 ml/m^2, n/N(%)” value (Day 30, FAS) was 3/73(4.1) %. The “Increase in LVEDVI at Day 30 compared with the baseline was more than or equal to 25 ml/m^2, n/N(%)” value (Day 30, FAS) was 3/73(4.1) %, the “Increase in LVEDVI at Day 30 compared with the baseline was more than or equal to 30 ml/m^2, n/N(%)” value (Day 30, FAS) was 1/73(1.4) % and the “Increase in LVESVI at Day 30 compared with the baseline was more than or equal to 5 ml/m^2, n/N(%)” value (Day 30, FAS) was 15/73(20.5) %. For the same molecule, the “Increase in LVESVI at Day 30 compared with the baseline was more than or equal to 10 ml/m^2, n/N(%)” value (Day 30, FAS) was 10/73(13.7) %, the “Increase in LVESVI at Day 30 compared with the baseline was more than or equal to 15 ml/m^2, n/N(%)” value (Day 30, FAS) was 5/73(6.8) % and the “Increase in LVESVI at Day 30 compared with the baseline was more than or equal to 20 ml/m^2, n/N(%)” value (Day 30, FAS) was 3/73(4.1) %. The “Increase in LVESVI at Day 30 compared with the baseline was more than or equal to 25 ml/m^2, n/N(%)” value (Day 30, FAS) was 1/73(1.4) %, the “Increase in LVESVI at Day 30 compared with the baseline was more than or equal to 30 ml/m^2, n/N(%)” value (Day 30, FAS) was 1/73(1.4) % and the “Reduction in LVEDVI at Day 30 compared with the baseline was more than or equal to 5 ml/m^2, n/N(%)” value (Day 30, FAS) was 43.8% and 32/73(43.8) %. The “Reduction in LVEDVI at Day 30 compared with the baseline was more than or equal to 10 ml/m^2, n/N(%)” value (Day 30, FAS) was 30.1% and 22/73(30.1) %, the “Reduction in LVEDVI at Day 30 compared with the baseline was more than or equal to 15 ml/m^2, n/N(%)” value (Day 30, FAS) was 21.9% and 16/73(21.9) % and the “Reduction in LVEDVI at Day 30 compared with the baseline was more than or equal to 20 ml/m^2, n/N(%)” value (Day 30, FAS) was 17.8% and 13/73(17.8) %. For the same molecule, the “Reduction in LVEDVI at Day 30 compared with the baseline was more than or equal to 25 ml/m^2, n/N(%)” value (Day 30, FAS) was 16.4% and 12/73(16.4) %, the “Reduction in LVEDVI at Day 30 compared with the baseline was more than or equal to 35 ml/m^2, n/N(%)” value (Day 30, FAS) was 6.8% and 5/73(6.8) % and the “Reduction in LVEDVI at Day 30 compared with the baseline was more than or equal to 40 ml/m^2, n/N(%)” value (Day 30, FAS) was 5.5% and 4/73(5.5) %. The “Reduction in LVEDVI at Day 30 compared with the baseline was more than or equal to 30 ml/m^2, n/N(%)” value (Day 30, FAS, P value of 0.046 vs placebo) was 13.7% and 10/73(13.7) %, the “LVESVI improved compared with that before administration” value (Day 30 after administration, P=0.0137) was 5.62 ml/m^2 and the “average improvement in LVEDVI from baseline, enriched population compared with overall (general) population” value (baseline LVESVI ≥135 mL/m^2) was “greater average improvement in LVEDVI”. The “average improvement in LVESVI from baseline, enriched population compared with overall (general) population” value (baseline LVESVI ≥135 mL/m^2) was “greater average improvement in LVESVI”, the “average improvement in LVEDVI from baseline, enriched population compared with overall (general) population” value [2] was “better average improvements in LVESVI or LVEDVI than the neuregulin treatment group in the general population” and the “average improvement in LVESVI from baseline, enriched population compared with overall (general) population” value [2] was “better average improvements in LVESVI or LVEDVI than the neuregulin treatment group in the general population”. The “LVESVI and LVEDVI: Simultaneous increase by more than or equal to 5 ml/m^2, n/N(%)” value (Day 30 vs baseline, FAS) was 13/73(17.8) %, the “LVESVI and LVEDVI: Simultaneous increase by more than or equal to 10 ml/m^2, n/N(%)” value (Day 30 vs baseline, FAS) was 9/73(12.3) % and the “LVESVI and LVEDVI: Simultaneous increase by more than or equal to 15 ml/m^2, n/N(%)” value (Day 30 vs baseline, FAS) was 3/73(4.1) %. For the same molecule, the “LVESVI and LVEDVI: Simultaneous increase by more than or equal to 20 ml/m^2, n/N(%)” value (Day 30 vs baseline, FAS) was 2/73(2.7) %, the “LVESVI and LVEDVI: Simultaneous increase by more than or equal to 25 ml/m^2, n/N(%)” value (Day 30 vs baseline, FAS) was 1/73(1.4) % and the “LVESVI and LVEDVI: Simultaneous increase by more than or equal to 30 ml/m^2, n/N(%)” value (Day 30 vs baseline, FAS) was 1/73(1.4) %. The “persistence of the LVESVI improvement effect” value (after 10-day administration, P=0.0128 at Day 90) was “could be maintained until Day 90 after the administration”, the “response rate for a substantial improvement in LVESVI (a reduction of more than 13 mL/m^2)” value [3] was 50% and the “response rate for both LVESVI and LVEDVI decreased by more than 20 mL/m^2, compared with placebo group” value [3] was “significantly higher than that in the placebo group”. For the same molecule, the “response rate for both LVESVI and LVEDVI reduced by ≥20 mL/m^2, enriched population compared with overall (general) population” value [3] was “higher than that in the overall population”, the “response rate for simultaneous improvements in both LVESVI and LVEDVI greater than 20 mL/m^2” value (enriched population, baseline LVESVI ≥135 mL/m^2, individual subjects) was 26.5% and the “response rate for both LVESVI and LVEDVI reduced by ≥20 mL/m^2, enriched population compared with overall (general) population” value (enriched population, baseline LVESVI ≥135 mL/m^2, listed as neuregulin) was “better response rate”. The “LVESVI and LVEDVI: Simultaneous reduction by more than or equal to 5 ml/m^2, n/N(%)” value [4] was 37.0% and 27/73(37.0) %, the “LVESVI and LVEDVI: Simultaneous reduction by more than or equal to 10 ml/m^2, n/N(%)” value [4] was 23.3% and 17/73(23.3) % and the “LVESVI and LVEDVI: Simultaneous reduction by more than or equal to 15 ml/m^2, n/N(%)” value [4] was 19.2% and 14/73(19.2) %. The “LVESVI and LVEDVI: Simultaneous reduction by more than or equal to 25 ml/m^2, n/N(%)” value [4] was 12.3% and 9/73(12.3) %, the “LVESVI and LVEDVI: Simultaneous reduction by more than or equal to 30 ml/m^2, n/N(%)” value [4] was 6.8% and 5/73(6.8) % and the “LVESVI and LVEDVI: Simultaneous reduction by more than or equal to 35 ml/m^2, n/N(%)” value [4] was 4.1% and 3/73(4.1) %. For the same molecule, the “LVESVI and LVEDVI: Simultaneous reduction by more than or equal to 40 ml/m^2, n/N(%)” value [4] was 1.4% and 1/73(1.4) % and the “LVESVI and LVEDVI: Simultaneous reduction by more than or equal to 20 ml/m^2, n/N(%)” value (individual subject, Day 30 vs baseline, FAS, p-value 0.0048 vs placebo) was 16.4% and 12/73(16.4) %.
